Here are results for 1 molecule from doi:10.1101/2023.07.17.549284.

In the experiment the target is T1, ACADVL (mouse (endogenous in heart and kidney)), P50544.
T1 chain: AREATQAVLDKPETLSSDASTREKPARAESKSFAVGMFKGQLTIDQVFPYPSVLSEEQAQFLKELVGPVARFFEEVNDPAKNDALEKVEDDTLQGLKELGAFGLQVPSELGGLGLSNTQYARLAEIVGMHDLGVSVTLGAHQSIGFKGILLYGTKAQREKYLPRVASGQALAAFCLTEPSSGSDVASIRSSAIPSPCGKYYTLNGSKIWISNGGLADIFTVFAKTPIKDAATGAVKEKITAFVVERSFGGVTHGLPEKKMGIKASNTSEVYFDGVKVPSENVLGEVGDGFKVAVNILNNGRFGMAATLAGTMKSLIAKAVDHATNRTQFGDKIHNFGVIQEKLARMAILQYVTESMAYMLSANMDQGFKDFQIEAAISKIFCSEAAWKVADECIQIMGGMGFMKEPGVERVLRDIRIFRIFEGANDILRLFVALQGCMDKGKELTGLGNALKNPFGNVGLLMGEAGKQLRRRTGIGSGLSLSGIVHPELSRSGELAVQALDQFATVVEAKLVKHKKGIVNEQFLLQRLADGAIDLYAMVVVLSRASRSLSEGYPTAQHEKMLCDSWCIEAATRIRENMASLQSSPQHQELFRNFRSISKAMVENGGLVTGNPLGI
Description: cryo-EM structure. The settings on record: remark: other sources report otherwise.

B1: ACADVL, P50544 42-656 (natural protein)
chain: T1 chain
In general, stoichiometry N refers to the number of molecules, sites or subunits per partner or assembly. For the molecule B1, the stoichiometry N is 2.
